From patent publication US20240294595A1, “GLYCOPEPTIDES AND USES THEREOF” (Arizona Board of Regents on Behalf of the University of …, priority 2013, published 2024)
Where no end group is shown, it is not given here. [ ]: non-standard residue; d: D form. The star is where a group is joined. βGlc = OC[C@H]1O[C@@H](*)[C@H](O)[C@@H](O)[C@@H]1O; Nle = CCCC[C@H](N)C(=O)O

Target: human PAC1 receptor (PAC1-CHO clonal cell line) (human), P41586
Test: cell-based or functional assay

Sequence of human PAC1 receptor (PAC1-CHO clonal cell line) (human), P41586 (P41586 21-468): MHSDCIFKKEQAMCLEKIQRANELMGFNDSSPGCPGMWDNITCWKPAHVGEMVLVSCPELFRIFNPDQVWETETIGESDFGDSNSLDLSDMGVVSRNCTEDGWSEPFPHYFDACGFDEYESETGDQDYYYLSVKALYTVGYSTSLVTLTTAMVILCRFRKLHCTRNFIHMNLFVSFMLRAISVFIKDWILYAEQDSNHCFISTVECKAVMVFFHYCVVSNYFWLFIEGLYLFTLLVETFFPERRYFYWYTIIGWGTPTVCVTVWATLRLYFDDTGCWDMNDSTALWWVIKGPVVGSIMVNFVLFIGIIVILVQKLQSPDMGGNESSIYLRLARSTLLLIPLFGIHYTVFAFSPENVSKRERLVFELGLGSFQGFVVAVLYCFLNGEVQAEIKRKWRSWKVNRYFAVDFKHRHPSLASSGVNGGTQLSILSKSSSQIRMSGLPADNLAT

## HSDGIFTDSYSRYRKQLAVKKYLAAVLS(melibiose)-NH2 […-Ser(Mel)]
  EC50 (agonist): 0.57 nM
  EMax (agonist): 99%

B1: Hs…Ñ…-Ser(Glc) (peptide)
peptide: HSDGIFTDSYSRYRKQXAVKKYLAAVLS
modifications: here or on the partner: D-Serine at 2 (s); L-Nor-Leucine at 17 (Ñ, written X in letters); Ser 28 = L-Ser(β-D-Glc)
  EC50 (agonist): 25.5 nM
  EMax (agonist): 85%

B2: Hs…Ñ…-Ser(Glc) (peptide)
peptide: HSDGIFTDSYSRYRKQXAVKKYLAAVS
modifications: here or on the partner: D-Serine at 2 (s); L-Nor-Leucine at 17 (Ñ, written X in letters); Ser 27 = L-Ser(β-D-Glc)
  EC50 (agonist): 54.5 nM
  EMax (agonist): 86%

## H[dS]DGIFTDSYSRYRKQ[Nle]AVKKYLAALS(βGlc)L-NH2 (ends and bridges not checked) [Hs…Ñ…-Ser(Glc)-L]
  EC50 (agonist): > 250 nM
  EMax (agonist): -79%

B3: Hs…Ñ…-Ser(Glc) (peptide)
peptide: HSDGIFADSYSRYRKQXAVKKYLAAVLS
modifications: here or on the partner: D-Serine at 2 (s); L-Nor-Leucine at 17 (Ñ, written X in letters); Ser 28 = L-Ser(β-D-Glc)
  EC50 (agonist): > 250 nM
  EMax (agonist): -71%

## HSDGIFTDSYSRYRKQMAVKKYLAAVL (ends and bridges not checked) [PACAP1-27]
  EMax (agonist): 100%

B4: PACAP1-27-S-G (peptide)
peptide: HSDGIFTDSYSRYRKQMAVKKYLAAVLS
modifications: here or on the partner: added C-terminal serine carries glucose (serine glucoside)
  normalized efficacy (calcium flux, FLIPR; PACAP1-27 = 100%): 102%
  potency of PAC1 activation (calcium flux, FLIPR, agonist mode, PAC1-CHO cells): 5.68 nM

## FTDSYSRYRKQMAVKKYLAAVLGKRYKQRVKNK (ends and bridges not checked) [PACAP6-38]
  antagonist potency, variable concentration mode versus 5 nM PACAP1-27 (calcium flux, FLIPR): > 333 nM
  pA2 (Gaddum/Schild EC50 shift model): 201 nM
